T1: ELANE (Homo sapiens, UniProt P08246)
T1 construct: incubated the neutrophil conditioned media with magnetic beads coupled to an anti-ELANE antibody; endogenous in cells; host or cells: human peripheral blood neutrophils from healthy donors (conditioned media)
T1 sequence (P08246 30-267): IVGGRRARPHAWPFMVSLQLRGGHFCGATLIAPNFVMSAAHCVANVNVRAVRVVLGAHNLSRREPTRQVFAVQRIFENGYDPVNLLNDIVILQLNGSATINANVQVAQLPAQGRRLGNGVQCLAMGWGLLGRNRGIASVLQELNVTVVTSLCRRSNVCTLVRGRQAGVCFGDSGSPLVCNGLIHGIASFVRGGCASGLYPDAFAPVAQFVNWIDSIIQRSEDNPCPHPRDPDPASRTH

T2: CD95 (Homo sapiens, UniProt P25445)
T2 sequence (P25445 26-335): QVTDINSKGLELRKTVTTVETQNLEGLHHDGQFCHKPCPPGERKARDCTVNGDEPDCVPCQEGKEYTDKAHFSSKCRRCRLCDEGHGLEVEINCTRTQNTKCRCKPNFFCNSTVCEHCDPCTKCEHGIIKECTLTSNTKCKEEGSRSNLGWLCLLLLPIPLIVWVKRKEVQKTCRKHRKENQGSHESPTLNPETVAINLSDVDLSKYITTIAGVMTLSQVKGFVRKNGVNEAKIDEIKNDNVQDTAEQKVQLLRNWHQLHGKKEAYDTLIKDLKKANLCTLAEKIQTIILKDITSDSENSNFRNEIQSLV


Legend:
MDA-MB-231 cells = assay: Cancer cell killing, Calcein AM staining; assay type: cell-based, human; conditions: for cancer cell killing in combination with neutrophil conditioned media: Neu-CM 4 μg/mL, DOX 0.3 μM or PTX 3 nM, 4h; for cancer cell killing activity of purified protein: increasing doses, 5h
Description: Approach to identify the factor(s) mediating selective killing. A quantitative cancer cell killing assay was developed to track the bioactive factor(s). MDA-MB-231 cells were treated with various doses of PMN media and cell viability was assessed by Calcein AM live cells fluorescence staining. […] (FIG. 3B) PMN media was passed through a 0.22 μm filter, and protein concentration and killing activity on MDA-MB-231 cancer cells was measured in both pre- and post-filter solutions. […] ELANE and ECP levels in PMN media pre- and post-filtration were quantified by mass spectrometry (spectral counts).
To determine if ELANE and/or ECP were responsible, the inventors (1) immuno-depleted ELANE or ECP from PMN media; (2) treated cancer or normal cells with purified native ELANE or ECP from commercial sources. (FIG. 6A) ELANE or ECP were depleted from PMN media by immunoprecipitation; depletion was confirmed by western blotting. PMN media pre-depletion=Orig. and post-depletion=FT. Non-specific IgG was used as a control. (FIG. 6B) MDA-MB-231 cells or human monocyte-derived macrophages (HMDMs) were treated with purified native ELANE or ECP at various doses for 24h, and killing was assessed by Calcein AM staining. (FIG. 6C) MDA-MB-231 cells and HMDMs were treated with levels of ELANE (0.25 μg/mL) or ECP (0.05 μg/mL) that were present in the PMN media, alone or in combination for 24 hrs, and killing was examined by Calcein AM staining.
High doses of ECP or ELANE can kill cancer cells. The inventors sought to determine whether adding purified human ECP (Lee Biosolutions), human ELANE (Abcam), human DEFA1 (Abcam), human ANXA6 (R&D Systems) or human CASP3 (Abcam) individually could kill cancer cells without killing non-cancer cells. Increasing doses of each protein were added to MDA-MB-231 cells for 5h or human monocyte-derived macrophages (HMDMs) for 24 h and cell viability was determined by Calcein-AM.
ELANE and ECP synergize to selectively kill cancer cells. MDA-MB-231 and human monocyte-derived macrophages (HMDMs) were treated with levels of ELANE (0.25 μg/mL) or ECP (0.05 μg/mL) that were present in the PMN media, alone or in combination for 24 hrs. killing was examined by Calcein AM staining.
Combining chemotherapeutics and neutrophil conditioned media enhances the killing of human triple negative breast cancer cells. MDA-MB-231 cells were treated with neutrophil conditioned media (Neu-CM; 4 μg/mL), doxorubicin (DOX; 0.3 μM), or paclitaxel (PTX; 3 nM) for 4h, individually or in combination, and cell viability was assessed by Calcein-AM.
(§1) Other serine proteases cleave the C-terminal domain of CD95, and the ability to cleave the C-terminal domain is associated with cancer cell killing. (FIG. 12A) Full length recombinanat CD95 protein was incubated with various serine proteases (human ELANE (80 nM), PR3 (80 nM), CSTG (80 nM), PPE (80 nM), mouse ELANE (80 nM), rat ELANE (500 nM), GZMB (80 nM), or Trypsin (250 nM)), or other types of proteases (CTSC (80 nM); or MMP7 (80 nM), MMP9 (80 nM), CTSD (80 nM) not shown) at 37° C. for 2 hours. Degradation was assessed by SDS-PAGE followed by coomassie blue staining. (FIG. 12B) MDA-MB-231 cancer cells were incubated with various proteases for 24 hrs. Cell viability was assessed by Calcein AM staining.
(FIG. 13A) MDA-MB-231 cancer cells were treated with various doses of purified native ELANE or purified native porcine pancreatic elastase (PPE) for 6 h, and killing was assessed by Calcein AM staining. (FIG. 13B). Purified native ELANE or purified native PPE was incubated with different concentrations of alpha-1-anti-trypsin (A1AT) for 15 mins. Catalytic activity was measured using a chromogenic substrate assay. Cancer cell killing capability was determined by treating MDA-MB-231 cancer cells with ELANE or PPE in the presence or absence of A1AT for 6h, followed by Calcein AM staining. (FIG. 13C) Catalytic activity was measured using a chromogenic substrate assay. […]

ELANE = target: T1, ELANE; assay: Anti-ELANE magnetic bead pull-down from neutrophil conditioned media, western blotting; assay type: binding; conditions: anti-ELANE antibody beads
Text: Identification of ECP, ELANE, ANXA6, DEFA1, and CASP3 as candidate cancer cell killing proteins in the neutrophil conditioned media. Neutrophil conditioned media was obtained from 2 different donors (Donor 1 and Donor 2). […] To determine the identity of the proteins depleted by the 0.2 μm sterile filter, the inventors performed quantitative proteomics analysis on the conditioned media from each donor pre- and post-filter. Proteomics analysis identified 2000 proteins, 4 of which (ECP, ELANE, ANXA6, and DEFA1) were depleted in samples from both donors (G-test, p<0.05). The inventors explored the possibility that these proteins might interact with or complement one another. This hypothesis was tested using two approaches. First, the inventors incubated the neutrophil conditioned media with magnetic beads coupled to an anti-ELANE antibody and analyzed the supernatant (sup), wash, and eluent (elute) by western blotting.

CD95 = target: T2, CD95; assay: Recombinant CD95 degradation, SDS-PAGE and coomassie blue; assay type: biochemical; set-up: Recombinant proteins (1 μg) corresponding to full length CD95 (FL-CD95); conditions: purified CD95
Description: ELANE lowers CD95 levels in cancer cells and reduced CD95 levels are associated with apoptosis. (FIG. 8A) Recombinant proteins (1 μg) corresponding to full length CD95 (FL-CD95), N-terminal domain of CD95 (amino acids 1-173; N-CD95), or C-terminal domain of CD95 (amino acids 157-320; C-CD95) were inbuated with ELANE (0.05 μg) or vehicle (Veh) for 2 hrs at 37° C. Degradation was assessed by SDS-PAGE followed by coomassie blue staining. […] (FIG. 8C) Cancer cells were treated with ELANE (50 nM) for 1 hr, fixed in 10% formalin, and stained with N- or C-terminal specific anti-CD95 antibodies (green). Hoechst 33342 solution was used for nuclear staining (blue). Images were taken under 40×.
ELANE selectively cleaves the C-terminal domain of CD95. The CD95 pathway is essential for the survival of a wide range of cancer cells, but largely dispensable for normal cell survival (Adachi et al., Nat. Genet., 1995; Karray et al., J. Immunol., 2004). CD95 function can be modulated by proteolysis (Strand et al., Oncogene, 2004). To test CD95 involvement in ELANE mediated cell killing ELANE (0.05 μg) was incubated with 1 μg recombinant human C-terminal (aa. 157-320) or N-terminal (aa. 1-173) CD95 for 2 hrs at 37° C. Degradation was assessed by SDS-PAGE followed by staining with coomassie blue. C-terminal domain cleavage. N-terminal domain cleavage. Cancer cells were treated with ELANE (50 nM) for 1 hr, fixed in 10% formalin, and stained with N- or C-terminal specific anti-CD95 antibodies. Hoechst 33342 solution was used for nuclear staining. Images were taken under 40×. […] Mel888 cancer cells were treated with ELANE (50 nM) for various times, and CD95 degradation was assessed by western blot analysis with a C-terminal specific anti-CD95 antibody.
as §1

| Molecule | cancer cell killing activity of purified protein (MDA-MB-231 cells) | cancer cell killing by proteases (MDA-MB-231 cells) | cleavage of purified CD95 (CD95) | other results |
| --- | --- | --- | --- | --- |
| COc1cccc2c1C(=O)c1c(O)c3c(c(O)c1C2=O)C[C@@](O)(C(=O)CO)C[C@@H]3O[C@H]1C[C@H](N)[C@H](O)[C@H](C)O1 [doxorubicin, reference compound] | – | – | – | cancer cell killing in combination with neutrophil conditioned media (MDA-MB-231 cells): enhanced cancer cell killing |
| DEFA1: purified human DEFA1 (Abcam) | low amount of activity | – | – | binding to ELANE (ELANE): ELANE-binding proteins |
| CC(=O)O[C@H]1C(=O)[C@@]2(C)[C@H]([C@H](OC(=O)c3ccccc3)[C@]3(O)C[C@H](OC(=O)[C@H](O)[C@@H](NC(=O)c4ccccc4)c4ccccc4)C(C)=C1C3(C)C)[C@]1(OC(C)=O)CO[C@@H]1C[C@@H]2O [paclitaxel, reference compound] | – | – | – | cancer cell killing in combination with neutrophil conditioned media (MDA-MB-231 cells): enhanced cancer cell killing |
| cathepsin G [CTSG] | – | killed cancer cells | cleaved purified CD95 with an identical degradation pattern to ELANE | – |
| ANXA6: purified human ANXA6 (R&D Systems) (protein, UniProt P08133 2-673, looked up) Annexin A6: AKPAQGAKYRGSIHDFPGFDPNQDAEALYTAMKGFGSDKEAILDIITSRSNRQRQEVCQSYKSLYGKDLIADLKYELTGKFERLIVGLMRPPAYCDAKEIKDAISGIGTDEKCLIEILASRTNEQMHQLVAAYKDAYERDLEADIIGDTSGHFQKMLVVLLQGTREEDDVVSEDLVQQDVQDLYEAGELKWGTDEAQFIYILGNRSKQHLRLVFDEYLKTTGKPIEASIRGELSGDFEKLMLAVVKCIRSTPEYFAERLFKAMKGLGTRDNTLIRIMVSRSELDMLDIREIFRTKYEKSLYSMIKNDTSGEYKKTLLKLSGGDDDAAGQFFPEAAQVAYQMWELSAVARVELKGTVRPANDFNPDADAKALRKAMKGLGTDEDTIIDIITHRSNVQRQQIRQTFKSHFGRDLMTDLKSEISGDLARLILGLMMPPAHYDAKQLKKAMEGAGTDEKALIEILATRTNAEIRAINEAYKEDYHKSLEDALSSDTSGHFRRILISLATGHREEGGENLDQAREDAQVAAEILEIADTPSGDKTSLETRFMTILCTRSYPHLRRVFQEFIKMTNYDVEHTIKKEMSGDVRDAFVAIVQSVKNKPLFFADKLYKSMKGAGTDEKTLTRIMVSRSEIDLLNIRREFIEKYDKSLHQAIEGDTSGDFLKALLALCGGED | could not kill cancer cells | – | – | – |
| proteinase 3 (protein, listed as Homo sapiens) MAHRPPSPALASVLLALLLSGAARAAEIVGGHEAQPHSRPYMASLQMRGNPGSHFCGGTLIHPSFVLTAAHCLRDIPQRLVNVVLGAHNVRTQEPTQQHFSVAQVFLNNYDAENKLNDVLLIQLSSPANLSASVATVQLPQQDQPVPHGTQCLAMGWGRVGAHDPPAQVLQELNVTVVTFFCRPHNICTFVPRRKAGICFGDSGGPLICDGIIQGIDSFVIWGCATRLFPDFFTRVALYVDWIRSTLRRVEAKGRP | – | killed cancer cells | cleaved purified CD95 with an identical degradation pattern to ELANE | – |
| murine neutrophil elastase (protein, listed as Mus musculus) MALGRLSSRTLAAMLLALFLGGPALASEIVGGRPARPHAWPFMASLQRRGGHFCGATLIARNFVMSAAHCVNGLNFRSVQVVLGAHDLRRQERTRQTFSVQRIFENGFDPSQLLNDIVIIQLNGSATINANVQVAQLPAQGQGVGDRTPCLAMGWGRLGTNRPSPSVLQELNVTVVTNMCRRRVNVCTLVPRRQAGICFGDSGGPLVCNNLVQGIDSFIRGGCGSGLYPDAFAPVAEFADWINSIIRSHNDHLLTHPKDREGRTN | – | killed cancer cells | cleaved purified CD95 with an identical degradation pattern to ELANE | – |
| CASP3: purified human CASP3 (Abcam) (protein) MENTENSVDSKSIKNLEPKIIHGSESMDSGISLDNSYKMDYPEMGLCIIINNKNFHKSTGMTSRSGTDVDAANLRETFRNLKYEVRNKNDLTREEIVELMRDVSKEDHSKRSSFVCVLLSHGEEGIIFGTNGPVDLKKITNFFRGDRCRSLTGKPKLFIIQACRGTELDCGIETDSGVDDDMACHKIPVEADFLYAYSTAPGYYSWRNSKDGSWFIQSLCAMLKQYADKLEFMHILTRVNRKVATEFESFSFDATFHAKKQIPCIVSMLTKELYFYH | could not kill cancer cells | – | – | binding to ELANE (ELANE): ELANE-binding proteins |
